Reference: US5840530, “DNA encoding receptors for the beta-2 chain of human IL-12” (Hoffmann-La Roche Inc., dated 1998)

What was measured:
[1] = target: T1, human IL-12 receptor beta1 and beta2 coexpressed on COS cells (cotransfection of the pEF-BOS beta1 plasmid … (human)); assay: equilibrium binding of 125I-labeled IL-12 to COS cells cotransfected with beta1 and beta2 plasmids, Scatchard analysis, high affinity site
Procedure: (§1) Recombinant human IL-12 was labeled with ^125I as follows. Iodogen was dissolved in chloroform. 0.05 mg aliquots of Iodogen were dried in 12×150 mm borosilicate glass tubes. For radiolabeling, 1.0 mCi Na[^125I] was added to the Iodogen-coated borosilicate glass tube, which also contained 0.05 ml of Tris-iodination buffer (25 mM Tris-HCL pH 7.5, 0.4M NaCl and 1 mM EDTA) to form a ^125I solution. The ^125I solution was activated by incubating for 6 minutes at room temperature. The activated ^125I solution was transferred to a tube containing 0.05 to 0.1 ml recombinant human IL-12 (31.5 µg) in Tris-iodination buffer. The resulting mixture of the activated ^125I solution and the recombinant human IL-12 was incubated for 6 minutes at room temperature. At the end of the incubation, 0.05 ml of Iodogen stop buffer (10 mg/ml tyrosine, 10% glycerol in Dulbecco's phosphate buffered saline (PBS), pH 7.40) was added and reacted for 3 minutes. The resulting mixture was then diluted with 1.0 ml Tris-iodination buffer containing 0.25% bovine serum albumin (BSA), and applied to a Bio-Gel P10DG desalting column for chromatography. The column was eluted with Tris-iodination buffer containing 0.25% BSA. […] The TCA precipitable radioactivity (10% TCA final concentration) was typically in excess of 95% of the total radioactivity. […]

[2] = target: T1, human IL-12 receptor beta1 and beta2 …; assay: equilibrium binding of 125I-labeled IL-12 to COS cells cotransfected with beta1 and beta2 plasmids, Scatchard analysis, low affinity site
Procedure: as §1

B1: recombinant human IL-12 (Interleukin-12) (ligand)
chain 1: IWELKKDVYVVELDWYPDAPGEMVVLTCDTPEEDGITWTLDQSSEVLGSGKTLTIQVKEFGDAGQYTCHKGGEVLSHSLLLLHKKEDGIWSTDILKDQKEPKNKTFLRCEAKNYSGRFTCWWLTTISTDLTFSVKSSRGSSDPQGVTCGAATLSAERVRGDNKEYEYSVECQEDSACPAAEESLPIEVMVDAVHKLKYENYTSSFFIRDIIKPDPPKNLQLKPLKNSRQVEVSWEYPDTWSTPHSYFSLTFCVQVQGKSKREKKDRVFTDKTSATVICRKNASISVRAQDRYYSSSWSEWASVPCS
chain 2: RNLPVATPDPGMFPCLHHSQNLLRAVSNMLQKARQTLEFYPCTSEEIDHEDITKDKTSTVEACLPLELTKNESCLNSRETSFITNGSCLASRKTSFMMALCLSSIYEDLKMYQVEFKTMNAKLLMDPKRQIFLDQNMLAVIDELMQALNFNSETVPQKSSLEEPDFYKTKIKLCILLHAFRIRAVTIDRVMSYLNAS
Kd [1]: 0.05 nM
Kd [2]: 5 nM
